According to patent publication US6329339A, “Pharmaceutical antiviral composition comprising glycyrrhizic acid and at least one protein endowed with antiviral activity” (priority 1997, dated 2001):

Key:
HSV1 [1] = details: Current Microbiology 1984; cited from earlier work
HSV1 [2] = experiment: Inhibition of HSV1 viral plaques on VERO cells; type: cell-based, Herpes Simplex Virus type 1; details: for Inhibition (%) of viral plaques with various lysozymes: percentage of the control ± standard deviation; for MDI50 (dose inhibiting 50% of the viral plaques on VERO cells): HSV1
VERO cells = experiment: Toxicity expressed as a minimum toxic dose on 50% of the cells; type: cell-based, African green monkey
Protocol: It was carried out as Example 1 except that different amounts of bovine and human lactoferrin were added to the single layers of VERO cells infected with HSV1.
*Toxicity expressed as a minimum toxic dose on 50% of the cells.

Molecule | antiviral / anti-herpetic (HSV1) activity of lysozymes (HSV1 [1]) | Inhibition (%) of viral plaques with various lysozymes (HSV1 [2]; 0.5 mg/ml) [%] | Inhibition (%) of viral plaques with various lysozymes (HSV1 [2]; 1 mg/ml) [%] | Inhibition (%) of viral plaques with various lysozymes (HSV1 [2]; 2 mg/ml) [%] | Inhibition (%) of viral plaques with various lysozymes (HSV1 [2]; 4 mg/ml) [%] | Inhibition (%) of viral plaques with various lysozymes (HSV1 [2]; 6 mg/ml) [%] | Inhibition (%) of viral plaques with various lysozymes (HSV1 [2]; 8 mg/ml) [%] | MDI50 (dose inhibiting 50% of the viral plaques on VERO cells) (HSV1 [2]) [mg/mL] | MTD50 (minimum toxic dose on 50% of the cells) (VERO cells) [mg/mL]
human lysozyme: human lysozyme (protein, UniProt P61626 19-148, looked up) Lysozyme C: KVFERCELARTLKRLGMDGYRGISLANWMCLAKWESGYNTRATNYNAGDRSTDYGIFQINSRYWCNDGKTPGAVNACHLSCSALLQDNIADAVACAKRVVRDPQGIRAWVAWRNRCQNRDVRQYVQGCGV | anti-herpetic (HSV1) activity | 18 ± 3 | 45 ± 3 | 59 ± 4 | 70 ± 4 | 79 ± 6 | 90 ± 5 | – | –
Human lactoferrin: human lactoferrin; lactoferrin supplied by SIGMA (protein, UniProt P02788 20-710, looked up) Lactotransferrin: GRRRSVQWCAVSQPEATKCFQWQRNMRKVRGPPVSCIKRDSPIQCIQAIAENRADAVTLDGGFIYEAGLAPYKLRPVAAEVYGTERQPRTHYYAVAVVKKGGSFQLNELQGLKSCHTGLRRTAGWNVPIGTLRPFLNWTGPPEPIEAAVARFFSASCVPGADKGQFPNLCRLCAGTGENKCAFSSQEPYFSYSGAFKCLRDGAGDVAFIRESTVFEDLSDEAERDEYELLCPDNTRKPVDKFKDCHLARVPSHAVVARSVNGKEDAIWNLLRQAQEKFGKDKSPKFQLFGSPSGQKDLLFKDSAIGFSRVPPRIDSGLYLGSGYFTAIQNLRKSEEEVAARRARVVWCAVGEQELRKCNQWSGLSEGSVTCSSASTTEDCIALVLKGEADAMSLDGGYVYTAGKCGLVPVLAENYKSQQSSDPDPNCVDRPVEGYLAVAVVRRSDTSLTWNSVKGKKSCHTAVDRTAGWNIPMGLLFNQTGSCKFDEYFSQSCAPGSDPRSNLCALCIGDEQGENKCVPNSNERYYGYTGAFRCLAENAGDVAFVKDVTVLQNTDGNNNEAWAKDLKLADFALLCLDGKRKPVTEARSCHLAMAPNHAVVSRMDKVERLKQVLLHQQAKFGRNGSDCPDKFCLFQSETKNLLFNDNTECLARLHGKTTYEKYLGPQYVAGITNLKKCSTSPLLEACEFLRK | – | – | – | – | – | – | – | 0.25 | 3
turkey lysozyme: turkey lysozyme (protein, UniProt P00703 19-147, looked up) Lysozyme C: KVYGRCELAAAMKRLGLDNYRGYSLGNWVCAAKFESNFNTHATNRNTDGSTDYGILQINSRWWCNDGRTPGSKNLCNIPCSALLSSDITASVNCAKKIASGGNGMNAWVAWRNRCKGTDVHAWIRGCRL | anti-herpetic (HSV1) activity | 10 ± 3 | 45 ± 5 | 55 ± 6 | 68 ± 5 | 80 ± 4 | 89 ± 5 | – | –
Bovine lactoferrin: bovine lactoferrin; lactoferrin supplied by SIGMA (protein, UniProt P24627 20-708, looked up) Lactotransferrin: APRKNVRWCTISQPEWFKCRRWQWRMKKLGAPSITCVRRAFALECIRAIAEKKADAVTLDGGMVFEAGRDPYKLRPVAAEIYGTKESPQTHYYAVAVVKKGSNFQLDQLQGRKSCHTGLGRSAGWIIPMGILRPYLSWTESLEPLQGAVAKFFSASCVPCIDRQAYPNLCQLCKGEGENQCACSSREPYFGYSGAFKCLQDGAGDVAFVKETTVFENLPEKADRDQYELLCLNNSRAPVDAFKECHLAQVPSHAVVARSVDGKEDLIWKLLSKAQEKFGKNKSRSFQLFGSPPGQRDLLFKDSALGFLRIPSKVDSALYLGSRYLTTLKNLRETAEEVKARYTRVVWCAVGPEEQKKCQQWSQQSGQNVTCATASTTDDCIVLVLKGEADALNLDGGYIYTAGKCGLVPVLAENRKSSKHSSLDCVLRPTEGYLAVAVVKKANEGLTWNSLKDKKSCHTAVDRTAGWNIPMGLIVNQTGSCAFDEFFSQSCAPGADPKSRLCALCAGDDQGLDKCVPNSKEKYYGYTGAFRCLAEDVGDVAFVKNDTVWENTNGESTADWAKNLNREDFRLLCLDGTRKPVTEAQSCHLAVAPNHAVVSRSDRAAHVKQVLLHQQALFGKNGKNCPDKFCLFKSETKNLLFNDNTECLAKLGGRPTYEEYLGTEYVTAIANLKKCSTSPLLEACAFLTR | – | – | – | – | – | – | – | 0.25 | 2
